Where two headings read alike, the source gives them in different places.
Legend:
[1] = target: human IL-17A receptor on HT1080 cells (human); test: cell-based or functional assay
[2] = target: T1, human IL-17A, untagged, E. coli derived (in house or Peprotech) (human, UniProt Q16552 24-155); test: cell-based or functional assay
[3] = target: T1, human IL-17A, untagged, E. coli derived …; test: cell-based or functional assay; remark: listed apart in the source
[4] = target: T1, human IL-17A, untagged, E. coli derived …; test: SPR BIAcore 2000; IgG1 amine-coupled on CM3, IL-17A 0.78-50 nM as analyte; Bivalent Analyte fit (kd1/ka1)
cynomolgus IL-17A [5] = target: T2, cynomolgus IL-17A (cynomolgus, UniProt Q16552 24-155 (human entry), limits assumed); test: as above
T2 construct: in house, E. coli derived (HEK EBNA derived in some HT1080 assays); also called Cyno IL-17A; Cyno IL-17
T2 chain: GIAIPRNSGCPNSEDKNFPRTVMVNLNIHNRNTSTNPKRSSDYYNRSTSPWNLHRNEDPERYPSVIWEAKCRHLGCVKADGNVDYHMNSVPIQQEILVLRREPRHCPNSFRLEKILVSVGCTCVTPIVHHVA

cynomolgus IL-17A [6] = target: T2, cynomolgus IL-17A; test: cell-based or functional assay
[7] = target: T3, human IL-17A derived from the HEK-EBNA expression system (human, UniProt Q16552 24-155); test: cell-based or functional assay
[8] = target: T1, human IL-17A, untagged, E. coli derived …; test: SPR BIAcore 2000; IgG1 amine-coupled on CM3, IL-17A 0.78-50 nM as analyte; 1:1 Langmuir fit
cynomolgus IL-17A [9] = target: T2, cynomolgus IL-17A; test: as above
[10] = target: T4, Human IL-17A-Flag-His10 (HEK) (human, UniProt Q16552 24-155); test: as above
T4 construct: may be the same protein as the HIS FLAG IL-17A; not shown: Flag-His10 tag

[11] = target: T3, human IL-17A derived from the HEK-EBNA …; test: estimated from pA2 (Schild) analysis in the HT1080 IL-6 release assay
[12] = target: T1, human IL-17A, untagged, E. coli derived …; test: cell-based or functional assay; remark: listed apart in the source
[13] = target: T1, human IL-17A, untagged, E. coli derived …; test: cell-based or functional assay; remark: listed apart in the source
[14] = target: T5, HIS FLAG tagged human IL-17A (in house HEK EBNA derived) (human, UniProt Q16552 24-155); test: HTRF receptor-ligand assay: inhibition of HIS FLAG IL-17A binding IL-17RA Fc
T5 construct: glycosylated, from HEK EBNA cells; also called HIS FLAG IL-17A; HIS FLAG human IL-17A; not shown: HIS FLAG tag

[15] = target: T5, HIS FLAG tagged human IL-17A (in house …); test: as above; remark: listed apart in the source
[16] = target: T5, HIS FLAG tagged human IL-17A (in house …); test: HTRF receptor-ligand assay: inhibition of HIS FLAG IL-17A binding IL-17RA Fc; scFv, non-germlined sequence
[17] = target: T6, Biosource mAb (reference anti-IL-17 mAb); test: HTRF epitope competition vs HIS FLAG IL-17A binding the IgG
T6 construct: murine (detected with anti-murine Fc)

Antibody 2 IgG1 = target: T7, Antibody 2 IgG1; test: as above
T7 construct: human IgG1, lambda; constant regions not in the listing; also called Antibody 02
T7 sequence (VH, as listed by the source): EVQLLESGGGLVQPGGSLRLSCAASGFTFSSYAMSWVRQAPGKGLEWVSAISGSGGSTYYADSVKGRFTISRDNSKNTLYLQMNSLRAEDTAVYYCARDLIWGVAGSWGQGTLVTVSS

Binder | HT1080 IL-6 release, IgG IC50 (cynomolgus IL-17A [6]) [nM] | HT1080 IL-6 release, IgG IC50 [7] [nM] | Fold difference in cross-reactivity (IgG) (cynomolgus IL-17A [6]) [fold] | IC50 [15] [nM] | HT1080 IL-6 release, scFv IC50 (cynomolgus IL-17A [6]) [nM] | HT1080 IL-6 release, scFv IC50 [7] [nM] | other results
Mutant IL-17A (L74Q, G75R, I77V, D80E, N82K, V83L, Y85H) with C-terminal His tag (HEK/EBNA) (ligand) GITIPRNPGCPNSEDKNFPRTVMVNLNIHNRNTNTNPKRSSDYYNRSTSPWNLHRNEDPERYPSVIWEAKCRHQRCVNAEGKLDHHMNSVPIQQEILVLRREPPHCPNSFRLEKILVSVGCTCVTPIVHHVAHHHHH | – | – | – | – | – | – | IL-6 release from HT1080 cells, EC50 [1]: 2.36 nM
Antibody 7 IgG1 (antibody, V domains shown, human IgG1, lambda; constant regions not in the listing; also called Antibody 07) VH: not shown VL: NFMLTQPHSVSESPGKTVTISCTRSSGSLANYYVQWYQQRPGSSPTIVIFANNQRPSGVPDRFSGSIDSSSNSASLTISGLKTEDEADYYCQTYDPYSVVFGGGTKLTVL | 5 | 0.7 | – | – | – | – | cartilage explant synergised IL-6 response, Mean IC50 [2]: 0.61 nM; chondrocyte IL-8 release, geometric mean IC50 at 2 nM IL-17A [3]: 1.6 nM; Kd [4]: 2.1 nM; Kd (cynomolgus IL-17A [5]): 1.34 nM; HT1080 IL-6 release, IgG geometric mean IC50 (n = 12) (cynomolgus IL-17A [6]): 4.8 nM; HT1080 IL-6 release, IgG geometric mean IC50 (n = 15) [7]: 0.8 nM; Kd [8]: 0.195 nM; Kd (cynomolgus IL-17A [9]): 0.512 nM; Kd [10]: 0.171 nM; Kd [11]: 0.553 nM; RA synovial fibroblast IL-8, Mean IC50 versus IL-17A (1 nM) and TNFα (0.1 ng/ml) [12]: 4.97 nM; RA synovial fibroblast IL-8, Mean IC50 versus IL-17A (2 nM) [12]: 2.85 nM; chondrocyte IL-8 release, geometric mean IC50 at 2 nM IL-17A [13]: 1.3 nM
Antibody 5 IgG1 (antibody, V domains shown) VH: not shown VL: NFMLTQPHSVSESPGKTVTISCTRSSGSLANYYVQWYQQRPGSAPTIVIFANNQRPSGVPDRFSGSIDSSSNSASLTISRLKTEDEADYYCQSYNHKDIVFGGGTKLTVL | 39.7 | 1.4 | 28 | – | – | – | –
Antibody 4 IgG1 (antibody, V domains shown) VH: not shown VL: NFMLTQPHSVSESPGKTVTISCTRSSGSLANYYVQWYQQRPGSAPTIVIFANNQRPSGVPDRFSGSIDSSSNSASLTISRLKTEDEADYYCQSYSPTSVVFGGGTKLTVL | 7.3 | 0.9 | 8 | – | – | – | –
Antibody 1 scFv (scFv, V domains shown, scFv (one chain); also called TINA12) VH: not shown VL: NFMLTQPHSVSESPGKTVTISCTRSSGSLANYYVQWYQQRPGSAPTIVIFANNQRPSGVPDRFSGSIDSSSNSASLTISRLKTEDEADYYCQSYDDSSVVFGGGTKLTVL | – | – | – | 12 | – | – | HT1080 IL-6 release, scFv: % inhibition printed in the IC50 column (no IC50 reached) [7]: 70%; IC50 [14]: 12 nM
Antibody 12 IgG1 (antibody, V domains shown) VH: not shown VL: NFMLTQPHSVSESPGKTVTISCTRSSGSLANYYVQWYQQRPGSAPTIVIFANNQRPSGVPDRFSGSIDSSSNSASLTISRLKTEDEADYYCQTYDPYSVVFGGGTKLTVL | 4.2 | 2.1 | 2 | – | – | – | –
Antibody 9 IgG1 (antibody, V domains shown) VH: not shown VL: NFMLTQPHSVSESPGKTVTISCTRSSGSLANYYVQWYQQRPGSAPTIVIFANNQRPSGVPDRFSGSIDSSSNSASLTISRLKTEDEADYYCQSYSPHSVVFGGGTKLTVL | 9.2 | 2.3 | 4 | – | – | – | –
Antibody 3 IgG1 (antibody, V domains shown) VH: not shown VL: NFMLTQPHSVSESPGKTVTISCTRSSGSLANYYVQWYQQRPGSAPTIVIFANNQRPSGVPDRFSGSIDSSSNSASLTISRLKTEDEADYYCQSYSPHSVVFGGGTKLTVL | 13 | 0.8 | 16 | – | – | – | –
Antibody 10 IgG1 (antibody, V domains shown) VH: not shown VL: NFMLTQPHSVSESPGKTVTISCTRSSGSLANYYVQWYQQRPGSAPTIVIFANNQRPSGVPDRFSGSIDSSSNSASLTISRLKTEDEADYYCQSYDPHSVVFGGGTKLTVL | 4.9 | 2.2 | 2 | – | – | – | –
Antibody 16 scFv (scFv, V domains shown, scFv (one chain)) VH: not shown VL: NFMLTQPHSVSESPGKTVTISCTRSSGSLANYYVQWYQQRPGSAPTIVIFANNQRPSGVPDRFSGSIDSSSNSASLTISRLKTEDEADYYCQTYDPYSVVFGGGTKLTVL | – | – | – | – | 249 | 13 | –
Antibody 14 scFv (non-germlined) (scFv, V domains shown, scFv (one chain)) VH: not shown VL: NFMLTQPHSVSESPGKTVTISCTRSSGSLANYYVQWYQQRPGSAPTIVIFANNQRPSGVPDRFSGSIDSSSNSASLTISRLKTEDEADYYCQSYDPTNQVFGGGTKLTVL | – | – | – | 2.5 | 99.5 | 36.7 | –
Antibody 2 scFv (non-germlined) (scFv, V domains shown, scFv (one chain)) VH: not shown VL: NFMLTQPHSVSESPGKTVTISCTRSSGSLANYYVQWYQQRPGSAPTIVIFANNQRPSGVPDRFSGSIDSSSNSASLTISRLKTEDEADYYCQSYDPHSVVFGGGTKLTVL | – | – | – | – | 99 | 16.2 | IC50 [16]: 0.7 nM
Antibody 15 scFv (non-germlined) (scFv, V domains shown, scFv (one chain)) VH: not shown VL: NFMLTQPHSVSESPGKTVTISCTRSSGSLANYYVQWYQQRPGSAPTIVIFANNQRPSGVPDRFSGSIDSSSNSASLTISRLKTEDEADYYCQSYSPTSVVFGGGTKLTVL | – | – | – | 1.6 | 159 | 21.7 | –
Antibody 13 scFv (non-germlined) (scFv, V domains shown, scFv (one chain)) VH: not shown VL: NFMLTQPHSVSESPGKTVTISCTRSSGSLANYYVQWYQQRPGSAPTIVIFANNQRPSGVPDRFSGSIDSSSNSASLTISRLKTEDEADYYCQSYDPRVVVFGGGTKLTVL | – | – | – | 1.6 | 147 | 35.9 | –
Antibody 6 scFv (non-germlined) (scFv, V domains shown, scFv (one chain)) VH: not shown VL: NFMLTQPHSVSESPGKTVTISCTRSSGSLANYYVQWYQQRPGSAPTIVIFANNQRPSGVPDRFSGSIDSSSNSASLTISRLKTEDEADYYCQSYSPSSVVFGGGTKLTVL | – | – | – | 1.7 | 136 | 31.2 | –
Antibody 8 scFv (scFv, V domains shown, scFv (one chain)) VH: not shown VL: NFMLTQPHSVSESPGKTVTISCTRSSGSLANYYVQWYQQRPGSAPTIVIFANNQRPSGVPDRFSGSIDSSSNSASLTISRLKTEDEADYYCQSYNHKDIVFGGGTKLTVL | – | – | – | 0.7 | 96.4 | 34.3 | –
Antibody 11 scFv (scFv, V domains shown, scFv (one chain)) VH: not shown VL: NFMLTQPHSVSESPGKTVTISCTRSSGSLANYYVQWYQQRPGSAPTIVIFANNQRPSGVPDRFSGSIDSSSNSASLTISRLKTEDEADYYCQSYSPHSVVFGGGTKLTVL | – | – | – | 0.6 | – | 8.2 | HT1080 IL-6 release, scFv: % inhibition printed in the IC50 column (no IC50 reached) (cynomolgus IL-17A [6]): 20%
dog IL-17A (in house E. Coli derived) (ligand) GIAFPQNPGCRNTEDKNFPQHVKVNLNILNRNTNSRRPSDYYNRSTSPWNLHRNEDPERYPSVIWEAKCRHLGCVNNEGNINYHMNSVPIQQEILVLRRESQHCPHSFRLEKMLVAVGCTCVTPIVRHVA | – | – | – | – | – | – | IC50 [17]: 50 nM; IC50 (Antibody 2 IgG1): 34 nM

Source: US20080044423A1 (AstraZeneca / MedImmune, published 2008)
